B1: biotin-labeled AP2µ [modified: biotin (incorporated with Transcend Biotinylated tRNA during translation); biotin (incorporated with Transcend Biotinylated tRNA during translation)] [murine] / GST-CD79a cytoplasmic domain [murine] (parent complex)
chain 1: MIGGLFIYNHKGEVLISRVYRDDIGRNAVDAFRVNVIHARQQVRSPVTNIARTSFFHVKRSNIWLAAVTKQNVNAAMVFEFLYKMCDVMAAYFGKISEENIKNNFVLIYELLDEILDFGYPQNSETGALKTFITQQGIKSQHQTKEEQSQITSQVTGQIGWRREGIKYRRNELFLDVLESVNLLMSPQGQVLSAHVSGRVVMKSYLSGMPECKFGMNDKIVIEKQGKGTADETSKSGKQSIAIDDCTFHQCVRLSKFDSERSISFIPPDGEFELMRYRTTKDIILPFRVIPLVREVGRTKLEVKVVIKSNFKPSLLAQKIEVRIPTPLNTSGVQVICMKGKAKYKASENAIVWKIKRMAGMKESQISAEIELLPTNDKKKWARPPISMNFEVPFAPSGLKVRYLKVFEPKLNYSDHDVIKWVRYIGRSGIYETRC
chain 2: RKRWQNEKFGVDMPDDYEDENLYEGLNLDDCSMYEDISRGLQGTYQDVGNLHIGDAQLEKP
B2: biotin-labeled AP2µ [modified: biotin (incorporated with Transcend Biotinylated tRNA during translation); biotin (incorporated with Transcend Biotinylated tRNA during translation)] [murine] / GST-21-mer of CD79a centered on the membrane … (parent complex)
chain 1: B1 chain 1
chain 2: MPDDYEDENLYEGLNLDDCSM
B3: biotin-labeled AP2µ [modified: biotin (incorporated with Transcend Biotinylated tRNA during translation); biotin (incorporated with Transcend Biotinylated tRNA during translation)] [murine] / GST-21-mer of CD79a centered on Y193 [murine] (parent complex)
chain 1: B1 chain 1
chain 2: EGLNLDDCSMYEDISRGLQGT

Variants of: B1
Experiment: in vitro binding of AP2µ-btn to bead-captured GST fusion protein; parent: 100; read off a plot

Q: For chain 2 RKRWQNEKFGVDMPDDYEDENLYEGLNLDDCSMEEDISRGLQGTEQDVGNLHIGDAQLEKP, which percent of parent is on record?
A: ~83 % of CD79a

Q: chain 2 RKRWQNEKFGVDMPDDYEDENLAEGLNLDDCSMYEDISRGLQGTYQDVGNLHIGDAQLEKP was tested. Which percent of parent did it give?
A: ~77 % of CD79a

Q: Which percent of parent does the source give for chain 2 RKRWQNEKFGVDMPDDYEDENLEEGLNLDDCSMYEDISRGLQGTYQDVGNLHIGDAQLEKP here?
A: ~49 % of CD79a

Q: With chain 2 RKRWQNEKFGVDMPDDYEDENLYEGLNLDDCSMYEDISRGLQGTAQDVGNLHIGDAQLEKP as the variant, how does the percent of parent read?
A: ~105 % of CD79a

Q: With chain 2 RKRWQNEKFGVDMPDDYEDENLYEGLNLDDCSMYEDISRGLQGTEQDVGNLHIGDAQLEKP as the variant, how does the percent of parent read?
A: ~102 % of CD79a

Q: chain 2 RKRWQNEKFGVDMPDDYEDENLEEGLNLDDCSMYEDISRGLQGTEQDVGNLHIGDAQLEKP was tested. Which percent of parent did it give?
A: ~41 % of CD79a

Q: chain 2 RKRWQNEKFGVDMPDDYEDENLAEGLNLDDCSMAEDISRGLQGTYQDVGNLHIGDAQLEKP was tested. Which percent of parent did it give?
A: ~78 % of CD79a

Q: How did the percent of parent turn out when chain 2 RKRWQNEKFGVDMPDDYEDENLEEGLNLDDCSMEEDISRGLQGTYQDVGNLHIGDAQLEKP was run?
A: ~58 % of CD79a

Q: How did the percent of parent turn out when chain 2 RKRWQNEKFGVDMPDDYEDENLAEGLNLDDCSMYEDISRGLQGTAQDVGNLHIGDAQLEKP was run?
A: ~50 % of CD79a

Q: Which percent of parent does the source give for chain 2 RKRWQNEKFGVDMPDDYEDENLYEGLNLDDCSMAEDISRGLQGTAQDVGNLHIGDAQLEKP here?
A: ~104 % of CD79a

Q: How did the percent of parent turn out when chain 2 RKRWQNEKFGVDMPDDYEDENLYEGLNLDDCSMEEDISRGLQGTYQDVGNLHIGDAQLEKP was run?
A: ~100 % of CD79a

Q: For chain 2 RKRWQNEKFGVDMPDDYEDENLYEGLNLDDCSMAEDISRGLQGTYQDVGNLHIGDAQLEKP, which percent of parent is on record?
A: ~99 % of CD79a

Q: With chain 2 RKRWQNEKFGVDMPDDYEDENLAEGLNLDDCSMAEDISRGLQGTAQDVGNLHIGDAQLEKP as the variant, how does the percent of parent read?
A: ~53 % of CD79a

Q: With chain 2 RKRWQNEKFGVDMPDDYEDENLEEGLNLDDCSMEEDISRGLQGTEQDVGNLHIGDAQLEKP as the variant, how does the percent of parent read?
A: ~24 % of CD79a

Variants of: B2
Experiment: in vitro binding of AP2µ-btn to bead-captured GST-21-mer; parent: 81; read off a plot

Q: chain 2 MPDDYEDENLEEGLNLDDCSM was tested. Which screen value did it give?
A: ~42 % of full-length CD79a

Q: How did the screen value turn out when chain 2 MPDDYEDENLAEGLNLDDCSM was run?
A: ~41 % of full-length CD79a

Variants of: B3
Experiment: in vitro binding of AP2µ-btn to bead-captured GST-21-mer; parent: 65; read off a plot

Q: How did the screen value turn out when chain 2 EGLNLDDCSMEEDISRGLQGT was run?
A: ~53 % of full-length CD79a

Q: For chain 2 EGLNLDDCSMAEDISRGLQGT, which screen value is on record?
A: ~50 % of full-length CD79a
